The text below walks through data of a protein production outcome set (Wang et al. 2014).

The nature of the data set: label from the status in PepcDB records.

Regarding “MKFQLKRLAKKRPDRVQIKIQDGQFEIIGMGVWHSYWRDPYHLLLTIPWTGFLLLICLSYLAINLIFALAYWLGGDCIANAKPGNFLDLFFFSVQTLASIGYGAMYPKTLYANTVVTIEAMIGLVGIAVMTGLAFARFSRPSARVIFSRVAVITPYNDVPTLMFRTANQRRNLILEAQMRVYLMRDEITAEGGFIRRFHDLKLLRNQTPSFTLSWLALHPIDEFSPLYGMSAESLIQTNTNIIISVSGIDETVAQVVHARYTYTASNILWNSRFVDIFHHTSDGHRYIDYKYFHDVLPLDKIG”, the protein production result is “failed”.

As for “MKFRGNFVCQPRAGPAESRPTRPFTPRPSATGSLFMSNQHFVSPDLIRQGFSRAMSDMYREEVPLYGALMELVAEVNAQVLERQPALARHLQSSGELQRLDLERHGAIRVGSAAELATLARLFAVMGMQPVGYYDLTPAGVPVHSTAFRAVHEAALQVSPFRVFTSLLRLELIDNPELRSFAEQVLARRQIFTPQVLELIQQAEAAGGLDAEDAERFIRQALETFRWHHHATVTAAQYASLSAQHRLIADVVAFKGPHINHLTPRTLDIDEVQRLMPARGITPKAVIEGPPRRECPILLRQTSFKALEESVAFTDQAQSQGSHSARFGEIEQRGAALTPKGRELYDRLLNAARDALGDFPNEANAQRYNQLMQEHFREFPDSHPAMREQGLAYFRYFVSETGLAARNQPQRPTTLAALLAAGHLSAEPLVYEDFLPVSAAGIFQSNLGDDSQSHYAGQSNRQAFEAALGRPTLDELQLYAQTQQRSLEHCAATLGLPAL”, the protein production entry was “failed”.

On to “MKFSIIVPSYNSEKYIAELLNSLQNQSYDKKDFEVILVDDCSSDNTLNVVEAYKNKLNLIIKQLDTNSGGPGKPRNTALQLAQGEYVFFVDSDDYINKDTLKDVSKFVDQNHADVVLVKMEGVNGRGVPKSMFKETSDAVTLANSRIIYTLSPTKFYRTSLLRDHAIEFPEDLRSAEDQLFTMKAYVNAKRIAVLADKPYYYATKREGEHMSSAYVSPEDFYKVMSLITEEILNSPLENKNEVLGYFIDRHFSFSRTNNFSLKIADDKKEAWMDALGDFIQKVPTVVDELVNDSFKPLLHYARLKDMKHYQMVEESYKNGKFHSYSAQEGTLKIQFDEGEPYFVFKKLVKPDIRMSHFEFNDQGFELELEFISSIINPNHVASMIQLKLLSRNKKEFIYIPLTMNDQTRFKFKADLNDLMPYLIKEKVWDAHLEMRVDNMTIEKRIGNKRVKYPYSKETSTITQYNNQYYRFTPYFTKDFDNLSFYITSNKLNEMLAVEIKDKQTIQLRSLEFNYILSEGMTAVILPHMFTYGYLTSVTTKDTLTYHLSVGEKVKDKDLKKNFKIETPHLVLKYLEHHHHHH”, for which the protein production result was “not failed”.

For the sequence “MKFSKFGQKFTQPTGISQLMDDLGDALKSDQPVNMLGGGNPAKIDAVNELFLETYKALGNDNDTGKANSSAIISMANYSNPQGDSAFIDALVGFFNRHYDWNLTSENIALTNGSQNAFFYLFNLFGGAFVNEHSQDKESKSVDKSILLPLTPEYIGYSDVHVEGQHFAAVLPHIDEVTHDGEEGFFKYRVDFEALENLPALKEGRIGAICCSRPTNPTGNVLTDEEMAHLAEIAKRYDIPLIIDNAYGMPFPNIIYSDAHLNWDNNTILCFSLSKIGLPGMRTGIIVADAKVIEAVSAMNAVVNLAPTRFGAAIATPLVANDRIKQLSDNEIKPFYQKQATLAVKLLKQALGDYPLMIHKPEGAIFLWLWFKDLPISTLDLYERLKAKGTLIVPSEYFFPGVDVSDYQHAHECIRMSIAADEQTLIDGIKVIGEVVRELYDNK”, the protein production entry is reported as “not failed”.

Consider “MKFVQERRLTVKTTFSKEYKIFIFGLLISRIGDSLYTFALPWIAYQLTGSAVIMGSLFAVNVLPIVLFGPLVGVLVDRYDRKKLLWMADIINIILVSLVPILHALHLLEVWHLYVITFILAVMSMLFDVTTVTVIPHIAGASLTKANSLYQMVNQLASLFGPIIAGLFISFIGGFQVLWINVLSFIATLIAVIILPSMKNLNKKNTDKKTLQNVLNDLFDGFKWLINDRLNIALSLQAMVGNFGASAVLGVLMYYLLSTLNLTSAQSGYNYTLIGIGGLLGSLIAVPLEKKFRRGILIPLLLFFGALGLTFALWSTYWLAPGIAFGIAMTCNITWNTIVTSIRQETVPSNLQGRVLGFSRVLTRLSMPLGALVGGIISAYNPVFIFALAAFTKIIEVFIALCSPIRKL”, for which the protein production entry was “failed”.

For “MKFYTILSILFISFMLSACAVLQKSSPLQENKDFYILDTHTQKKISFEDMILELLKADVILLGEKHDEVKHKISQVMIFNALEGNLSSQNINFDVALEMLASTEQNHLDKAFKNKKTIKANELTNALNWDKVWKWKDYEQFVNVVFYSKSKILGANLSRSEITSIYNGAQPLKGYVSTTNEVKKQLFDIISLSHKLNPEENKELLDKLVEIQQFKDRRMADVLVHHVNKVLLLAGSYHTSKKIGIPLHIQDFKSSKKIVVVNLSYGEIDLKDSDYVLIYKGEELEHHHHHH”, the protein production result was “failed”.

For “MKGENMMVKLIALYEQPEDKQAFDEHYFNTHAPLTRKIPGLRDMKVTRIVGSPMGESKFYLMCEMYYDDHESLQQAMRTDEGKASGKDAMKFAGKLLTLMIGEEMDE”, the protein production entry is on record as “not failed”.

With “MKGFIDDANYSVGLLDEGTNLGNVIDNYVYEHTLTGKNAFFVGDLGKIVKKHSQWQTVVAQIKPFYTVKCNSTPAVLEILAALGTGFACSSKNEMALVQELGVSPENIIFTSPCKQVSQIKYAAKVGVNIMTCDNEIELKKIARNHPNAKVLLHIATEDNIGGEDGNMKFGTTLKNCRHLLECAKELDVQIIGVKFHVSSACKEYQVYVHALSDARCVFDMAGEFGFTMNMLDIGGGFTGTEIQLEEVNHVISPLLDIYFPEGSGIQIISEPGSYYVSSAFTLAVNIIAKKVVENDKFSSGVEKNGSDEPAFVYYMNDGVYGSFASKLSEDLNTIPEVHKKYKEDEPLFTSSLWGPSCDELDQIVESCLLPELNVGDWLIFDNMGADSFHEPSAFNDFQRPAIYFMMSFSDWYEMQDAGITSDAMMKNFFFAPSCIQLSQEDSFSTEA”, the protein production result was “not failed”.

For “MKGFNIYTDESTLVSIGDDAGVYEHNGIIWVYTVDIITPVVNDPYLWGAISTANALSDVYAMGGIPVNALAISCFNNCELDIEIFREVIRGALDKLREAKTVLLGGHTIDDKEPKFGLSVAGICPEGKYITQSGAQVGQLLILTKPIGTGILIKGLKEGILKEEDINEAIENMLALNDKARNLMLSLDATACTDVTGFGLLGHAWNICKNSNIGARIFFEKVPYYQLSENLVKKKIYPKGAIENLNFVKNYLKSNLDNWKLILLSDPVTSGGLLFTINKEKLEKIDETAKELEVNYWIIGETIAENVLEVL”, the protein production entry is recorded as “not failed”.

Turning to “MKGHIRERSPGHWAIVLDVGEVDPKTGKKKRKWHSFTGTKREAQKECSRLITVLDQGLYVEPTKQTVAEFLNEWLAFVKPSVAPKTHERYTEICRKGLSPLIGNVILSKLKTDRIDAAFTTALTAPRVDHRTKKDQREPLPPLAPRTVHHYRRVLVKALGQAVTWERLSRNPATATTPPKVERQKMLAYDVGQTATLLETLRPTRMFVPVLLAVTCGLRRGEILALRWRHLELGDNRRQMSIEESAEQTADGVRYKEPKSGRARTVALSASTVAELKAHRARQAEEQLRLGIRPDADSFVVAQVDGQPLQPRSLTHEWVRVLGKTSLPRIRFHDLRHTHATQMLSAGVHPKIASERLGHSNIGITLDLYSHVMPGMQADAAEQVDVALQAAISSERKGK”, the protein production result is given as “failed”.

For “MKGIMVQGTASDVGKSLICTALCRIFARRGYKVTPFKSQNMSNNSYITVEGLEIGRAQGIQAEAAMEEASVYMNPILLKPRNDREAEIVCFGQAVDTVSGVKYRDGFYKRGLEAIKQALATLSQSFDMVVIEGAGSPVEVNLNDRELVNMKVAELADVPVILVADIERGGVFASLYGTLELLQPNERKRVVGIIVNKFRGDPELFSSGVQWIEQHLGVPVLGVLPHLPGVRIEGEDSLSKGQVTSVLPRDQSIDIAVLDLPYLSNYTDLEPFRYEEDVAIRFVSSVDALGRPDAIILPGTKSTFHDLQILKEKGFKERLHEYVTTDGTVVAICGGFQMLGHRLIDVAGSDTGIKGATIDGLDLAPVETRFAEKKKTVRSLGQLLHPFGTAKDIYGFEIHLGETDIVDPSIPAFLRVGNHTDGVYLHEGRLIGTYFHHLFFNDDFRSGWLNTLRRKKGLRERPTVELEKCRRASYDQLADEVERVLHVDSLLEKMERWGETSLEHHHHHH”, the protein production result was “not failed”.

For “MKGITSLGSKWFVEFEKNNVHNVYDRIAEHFTKTRYRIWPGVELFLKQTSPLDTVLDVGCGNGKNLISYRNLFCIGIDRCVPLVKTCKQRQLETAVADILELPFQSEKFDIVLCIAVLHHLCTRERRILAIQELGRVLRPGGSCLLYVWAANENDGKDEVKNTKAREKMRFLDENKQEALIPWVVIDHEKKATQLEKNLKQPSTFTLERYYHLYRQGELEEECLQSNCFHIQHSYYEQSNWCVVLDKKS”, the protein production result is “not failed”.

As for “MKGKILDYSIQTSTGIIRAENQQRYSFSGSAWKEQQAPMRGMHVDFEIDAQDQVIDIFIDASDLEPAIQPSPTAVISDTVSKETHADNLSTSSDPLSSASLSHTHSQYSSSTDDQHQNLLANESKYSMMDWVMKCLRNYINFTGRARRKEYWFFQLWYAILSFVMLVLGDAFHWGDNLFLIATLLVALPAIAVSAHRLHDINRSGWLVLLNLVTIVGVLIVTFFFMIKEGDQTTNSYGPASK”, the protein production result was “failed”.

“MKGKVVSYLAAKKYGFIQGDDGESYFLHFSELLDKKDEGKLVKGSMVHFDPTPTPKGLAAKAISLPLEHHHHHH”: the protein production entry is “not failed”.

For the sequence “MKGLCSSDTRQYLPGHQLWEAPVQIRRYSAVIHHATKCQWGVIPSRTINVSLHQTRRMRVAAVGIGGAGGRIVERLWQDNERRETTYLGAACAVDTDTEALDELDALPADRRYAFGLSETNGTGTNGDRTSGTAAIEDERLEVRRAIDELVTSDIDAVVLVAGLAGGTGSGATAHIADALREVYSIPVYCLSVLPAGRDDDAAANTMQALRALESTVDGQILFDNEAWLGSGQTVESASETLNETIVARLGALFAAGEATAPDAVGQSVVDASEIINTLSDAGFTTLGYASQDLQTGAGSGDGTVIDQLKNRFLGDNADDVDEIEAYNAVETTLRRAVRGKLTAQCELDSADRALAVFAGPPAWLIRDAVTDGRRWLTEELQSPLEHHHHHH”, the protein production entry is recorded as “failed”.

Regarding “MKGNFHSTYDQGFARVAACTTTVHIGDPASNVAGILDTCRELSSRSVAIAVFPELCLTGYAIDDLLLQDVVLDAVLDAIETVRQASRSLFPVIIVGAPLQRGNRLYNCAVVIHRGQVLGVVPKSHLPNYREFYEKRHFAVGAGTTGMIDLSGRQKSHAASTEIPFGPDQLFRATDLPDLTFHVEVCEDLWVPVAPSSQAALAGAVVEVNLSGSPITVGKSRQRHELCKVTSSRNLQAYVYAAAGPGESSTDLSWDGQTMIYENGSLLAATDRFSPEPGYCLADIDLDLLRQERLRQGSFDDNALAQPAQAPWRTTIFTLDPPHDDIGLERPVNRFPFVPNDPDQLAQDCYEAYNIQVYGLRRRLESMGSPKIVIGVSGGLDSTHALLVAAKAMDQMGRPRTDILAFTMPGFATTDHTKNNALDMCRALGIPCEVLDIRPAATQMLKGMSHPAGDGAEVYDVTFENVQAGLRYDYLFRIANQRGGIVLGTGDLSELALGWCTFGVGDQMSHYGVNTGVPKTLIQHLIRWCISSGQFNEATNVVLESVLGTEISPELVPARPGEKIQSTQAKIGPYELQDFTLYHLLRHGMRPSRIIFLSHHAWRDASVGSWPPGFRDEDRHSYDLSAIKDWTRLFLRRFVGNQFKRSTLPNGPKVVAGGSLSPRGDWRMPSDAVVRAWLDDLETVPDERF”, the protein production entry is “failed”.

Consider “MKGTKKLAWLGLLLVLPVLAQATTVTYSALTVRELGNFLMNLPTGFYAIAPAAAKNMMDTVDVFILDVREPNEFAGERIQGAVNIPIRDLPKRVGELPKGKPIIVYCKVGHRGSMAMMFLRGQGYNVQSISGGLDGWKNAGLPVVK”, for which the protein production result is recorded as “failed”.

As for “MKGTNTIYIIISSILLAYIMQIFVLYPFTAVAIGIPLGLLSRKYSAIGGFLIGFLSSLSLYLIYPINAVSKIAEIIGQLIGINPFLVVLLYPLIYGTISLISALLFYYIVRLNK”, the protein production entry is “failed”.
